Positions count from the first letter of the chain named. Names and notes keep the numbering of the source.
B1: V376M (protein)
chain: MQLRNPELHLGCALALRFLALVSWDIPGARALDNGLARTPTMGWLHWERFMCNLDCQEEPDSCISEKLFMEMAELMVSEGWKDAGYEYLCIDDCWMAPQRDSEGRLQADPQRFPHGIRQLANYVHSKGLKLGIYADVGNKTCAGFPGSFGYYDIDAQTFADWGVDLLKFDGCYCDSLENLADGYKHMSLALNRTGRSIVYSCEWPLYMWPFQKPNYTEIRQYCNHWRNFADIDDSWKSIKSILDWTSFNQERIVDVAGPGGWNDPDMLVIGNFGLSWNQQVTQMALWAIMAAPLFMSNDLRHISPQAKALLQDKDVIAINQDPLGKQGYQLRQGDNFEVWERPLSGLAWAVAMINRQEIGGPRSYTIAVASLGKGMACNPACFITQLLPVKRKLGFYEWTSRLRSHINPTGTVLLQLENTMQMSLKDLL
B2: A377G (protein)
chain: B1 chain with M376V, A377G
B3: A377P (protein)
chain: B1 chain with M376V, A377P
B4: A377S (protein)
chain: B1 chain with M376V, A377S

How the values were obtained:
[1] = tested on: active site of wild-type α-Gal A and specific mutant forms of α-Gal A; details: selective and reversible binding; cited from earlier work
[2] = tested on: mutant form of α-Gal A expressed in HEK-293 cells; experiment: HEK assay (GLP HEK / Migalastat Amenability Assay): α-Gal A activity in lysates of transiently transfected HEK-293 cells incubated with or without 10 μM migalastat; type: cell-based, human; details: for Absolute increase (% WT) / Relative increase: 10 μM migalastat versus baseline; for Baseline α-Gal A activity (% WT): absence of migalastat; for Baseline α-Gal A activity (% WT) / 10 μM migalastat α-Gal A activity (% WT): percentage of baseline wild-type α-Gal A activity; for Baseline α-Gal A activity (% WT) / Baseline α-Gal A activity / 10 μM migalastat α-Gal A activity / 10 μM migalastat α-Gal A activity (% WT): mean ± SEM; for Baseline α-Gal A activity / 10 μM migalastat α-Gal A activity: lysates of HEK-293 cells transiently transfected with the mutant form; for Baseline α-Gal A activity: incubated 5 days in absence of migalastat; for 10 μM migalastat α-Gal A activity: incubated 5 days with 10 μM migalastat; for 10 μM migalastat α-Gal A activity (% WT): with 10 μM migalastat
Procedure, shortened: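 Activity reported as 4-MU released (nmol/mg/hr), mean±SEM, from lysates of transiently transfected HEK-293 cells expressing mutant α-Gal A, cultured with or without 10 μM migalastat.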

Molecule | binding to the active site of α-Gal A [1] | in vitro response to incubation with migalastat (amenability criteria) ([2]; novel α-Gal A mutations listed in Table 2, HEK-293 lysates, 10 μM migalastat, 5 days) | Absolute increase (% WT) [2] [% WT] | Relative increase [2] | Baseline α-Gal A activity (% WT) [2] [% WT] | Baseline α-Gal A activity [2] [nmol/mg/h] | 10 μM migalastat α-Gal A activity [2] [nmol/mg/h] | 10 μM migalastat α-Gal A activity (% WT) ([2]; 5 days)
OC[C@H]1NC[C@H](O)[C@@H](O)[C@H]1O [migalastat, (2R,3S,4R,5S)-2-(hydroxymethyl) piperdine-3,4,5-triol, reference compound] | high affinity | met amenability criteria | – | – | – | – | – | –
B1 | – | – | 20.1 | 1.3 | 79.3 ± 2.7 | 27547 ± 1431 | 34563 ± 1762 | 99.4 ± 3.2
B2 | – | – | 16.1 | 1.2 | 71.6 ± 2.5 | 26583 ± 1072 | 32517 ± 981 | 87.7 ± 2.3
B3 | – | – | 17.2 | 1.3 | 59.4 ± 2.6 | 21842 ± 930 | 28189 ± 1292 | 76.6 ± 3.5
B4 | – | – | 13.7 | 1.3 | 48.1 ± 2.3 | 17737 ± 860 | 22793 ± 999 | 61.8 ± 2.7

— US11833164B2, “Methods of treating Fabry disease in patients having a mutation in the GLA gene” (Amicus Therapeutics, Inc., priority 2019, dated 2023)
